# Article PMC10321299
# Target: SpyCatcher-tagged ferritin
# Test: SDS-PAGE of the covalent conjugate; purified SC-FN and rePO-ST mixed in vitro overnight (12 hours) at 4 °C in molar ratios 1:8 to 1:28; isopeptide bond between SpyTag and SpyCatcher; new band on SDS-PAGE
substance,measurement,value
SpyTag-tagged rePO (recombinant PcrV-OprI with SpyTag at the C-terminus) (from UniProt G3XD49 28-294; P11221 25-83),proportion of conjugated ferritin,70%
